Results from patent US20150267177A1.
Read-outs that look alike come from different tables or passages of the source.

Tests used:
[1] = tested on: Act-PB1 (MDH activator protein Act of Bacillus methanolicus PB1)
[2] = molecular target: T1, Act-PB1 (MDH activator protein Act of Bacillus methanolicus PB1); remark: listed apart in the source
T1 sequence (Q8KP10 2-185, looked up): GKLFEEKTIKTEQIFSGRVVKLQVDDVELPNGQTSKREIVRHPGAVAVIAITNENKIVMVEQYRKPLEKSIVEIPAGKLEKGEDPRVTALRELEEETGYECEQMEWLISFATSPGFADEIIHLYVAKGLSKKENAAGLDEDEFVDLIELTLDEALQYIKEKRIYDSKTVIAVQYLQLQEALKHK

[3] = molecular target: T2, Act-MGA3 (MDH activator protein Act of Bacillus methanolicus MGA3)
T2 sequence (Q8KP10 2-185, looked up): T1 sequence (Q8KP10 2-185, looked up)

[4] = molecular target: T3, Mdh2-MGA3 (methanol dehydrogenase Mdh2 of Bacillus methanolicus MGA3) (Bacillus methanolicus MGA3); assay: cell-based or functional assay
T3 sequence: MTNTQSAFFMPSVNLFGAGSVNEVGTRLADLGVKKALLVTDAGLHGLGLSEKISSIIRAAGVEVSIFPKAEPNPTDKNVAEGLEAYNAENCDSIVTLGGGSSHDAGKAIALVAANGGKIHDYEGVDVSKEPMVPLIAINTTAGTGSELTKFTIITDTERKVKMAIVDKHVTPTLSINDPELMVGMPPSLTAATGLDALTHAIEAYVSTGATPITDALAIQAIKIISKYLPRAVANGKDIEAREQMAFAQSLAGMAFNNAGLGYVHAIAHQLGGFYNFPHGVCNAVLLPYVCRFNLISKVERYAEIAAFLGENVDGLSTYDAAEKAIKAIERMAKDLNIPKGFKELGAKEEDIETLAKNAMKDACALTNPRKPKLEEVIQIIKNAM

[5] = molecular target: T4, Mdh3-MGA3 (methanol dehydrogenase Mdh3 of Bacillus methanolicus MGA3) (Bacillus methanolicus MGA3); assay: cell-based or functional assay
T4 sequence: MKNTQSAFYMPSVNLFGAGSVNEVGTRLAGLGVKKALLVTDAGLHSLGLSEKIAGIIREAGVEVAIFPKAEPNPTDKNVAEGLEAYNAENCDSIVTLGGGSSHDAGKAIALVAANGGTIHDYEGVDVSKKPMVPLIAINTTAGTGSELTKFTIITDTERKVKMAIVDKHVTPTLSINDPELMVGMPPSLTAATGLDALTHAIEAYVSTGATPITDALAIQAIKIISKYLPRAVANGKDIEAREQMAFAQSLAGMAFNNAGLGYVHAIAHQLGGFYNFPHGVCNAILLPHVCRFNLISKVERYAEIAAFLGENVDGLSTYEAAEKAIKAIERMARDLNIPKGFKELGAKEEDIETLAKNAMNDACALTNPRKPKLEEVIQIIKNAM

[6] = molecular target: T5, Mdh-MGA3 (methanol dehydrogenase Mdh of Bacillus methanolicus MGA3, encoded on plasmid pBM19) (Bacillus methanolicus MGA3) (UniProt P31005); assay: cell-based or functional assay
T5 sequence: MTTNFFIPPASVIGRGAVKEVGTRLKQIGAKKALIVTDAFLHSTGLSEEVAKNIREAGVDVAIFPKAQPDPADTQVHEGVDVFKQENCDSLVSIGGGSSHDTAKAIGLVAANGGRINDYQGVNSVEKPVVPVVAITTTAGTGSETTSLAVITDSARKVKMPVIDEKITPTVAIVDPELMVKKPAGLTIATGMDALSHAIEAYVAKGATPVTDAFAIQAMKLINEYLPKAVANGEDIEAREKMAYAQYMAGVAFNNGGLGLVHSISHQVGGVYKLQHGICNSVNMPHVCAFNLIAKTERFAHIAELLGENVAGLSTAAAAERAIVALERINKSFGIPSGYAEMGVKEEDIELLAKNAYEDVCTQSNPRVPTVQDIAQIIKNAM

the MGA3 MDHs = assay: cell-based or functional assay
[7] = molecular target: T6, Mdh-MGA3 (methanol dehydrogenase Mdh of Bacillus methanolicus MGA3, encoded on plasmid pBM19)
T6 chain: T5 sequence

**Q.** With “Mdh-PB1 (methanol dehydrogenase Mdh of Bacillus methanolicus PB1, encoded on plasmid pBM20)” as the molecule, how does the Km for methanol in the presence of Act (20 ug MDH + 20 ug Act) [1] read?
**A.** 13.9 mM

**Q.** What about the Vmax with methanol in the presence of Act (20 ug MDH + 20 ug Act) [1] of the same molecule?
**A.** 0.2 U/mg

**Q.** And the “Vmax with methanol, with Act against single enzyme assay” value (“Vmax with methanol, with Act” below) [1]?
**A.** The Vmax values were increased 4-6-fold compared to in the single enzyme assays

**Q.** What about the “fold reduction of Km,MeOH by Act” value [1] of the same molecule?
**A.** substantially reduced (16-fold and 70-fold, respectively) in the presence of Act

**Q.** How did the Km for methanol in the presence of Act (20 ug MDH + 20 ug Act) [1] turn out when “Mdh1-PB1 (methanol dehydrogenase Mdh1 of Bacillus methanolicus PB1)” was run?
**A.** 2.3 mM

**Q.** What about the Vmax with methanol in the presence of Act (20 ug MDH + 20 ug Act) [1] of the same molecule?
**A.** 0.056 U/mg

**Q.** What about the “Vmax with methanol, with Act” value [1] of the same molecule?
**A.** The Vmax values were increased 4-6-fold compared to in the single enzyme assays

**Q.** What about the “fold reduction of Km,MeOH by Act” value [1] of the same molecule?
**A.** substantially reduced (16-fold and 70-fold, respectively) in the presence of Act

B1: Mdh2-PB1 (methanol dehydrogenase Mdh2 of Bacillus methanolicus PB1) (protein)
chain: MTNTQSIFYIPSVNLFGPGSVNEVGTRLAGLGVKKALLVTDAGLHGLGLSEKIASIIREAGVEVLIFPKAEPNPTDKNVAEGLEVYNAENCDSIVTLGGGSSHDAGKGIALVAANGGTIYDYEGVDKSKKPMVPLIAINTTAGTGSELTRFTIITDTERKVKMAIVDKHVTPTLSINDPELMVGMPPSLTAATGLDALTHAIEAYVSTAATPITDALAIQAIKIISKYLPRAFANGKDMEAREQMAFAQSLAGMAFNNASLGYVHAIAHQFGGFYNFPHGVCNAILLPHVCRFNLISKVERFAEIAALLGENVAGLSTREAAEKGIKAIERMAKDLNIPRGFKELGAKEEDIVTLAENAMKDATALTNPRKPKLEEVIQIIKNAM
**Q.** Which results are given for B1?
**A.** Km for methanol in the presence of Act (20 ug MDH + 20 ug Act) [2]: 36 mM; Vmax with methanol in the presence of Act (20 ug MDH + 20 ug Act) [2]: 0.24 U/mg; Vmax with methanol, with Act against single enzyme assay [2]: The Vmax values were increased 4-6-fold compared to in the single enzyme assays; fold reduction of Km,MeOH by Act [2]: moderately (4-fold) reduced by Act for Mdh2-PB1

B2: Mdh3-MGA3 (methanol dehydrogenase Mdh3 of Bacillus methanolicus MGA3) (protein)
chain: T4 sequence
**Q.** Which Km for methanol in the presence of Act (20 ug MDH + 20 ug Act) [3] does the source give for B2 here?
**A.** 150 mM

**Q.** And the Vmax with methanol in the presence of Act (20 ug MDH + 20 ug Act) [3]?
**A.** 0.45 U/mg

**Q.** What about the “Vmax with methanol, with Act” value [3] of the same molecule?
**A.** The Vmax values were increased 4-6-fold compared to in the single enzyme assays

**Q.** What about the “change of Km,MeOH by Act” value [3] of the same molecule?
**A.** remained essentially the same as when tested without Act

**Q.** What about the “methanol dehydrogenase activity in lysates of recombinant B. subtilis 168, methanol or ethanol as substrate, 50 C” value (from here on “methanol dehydrogenase activity”) [3] of the same molecule?
**A.** In all cases, methanol dehydrogenase activities were significantly stimulated by Act

B3: Mdh-MGA3 (methanol dehydrogenase Mdh of Bacillus methanolicus MGA3, encoded on plasmid pBM19) (protein)
chain: T5 sequence
**Q.** How did the Km for methanol in the presence of Act (20 ug MDH + 20 ug Act) [3] turn out when B3 was run?
**A.** 12 mM

**Q.** What about the “MDH catalytic activity with methanol as substrate, at relative concentrations of the proteins of 1:2-20:1” value [3] of the same molecule?
**A.** Full activation was reached at a relative concentration of between 1:1 and 5:1 and no inhibition due to relative high activator concentrations was observed

**Q.** And the Vmax with methanol in the presence of Act (20 ug MDH + 20 ug Act) [3]?
**A.** 0.5 U/mg

**Q.** What about the “Vmax with methanol, with Act” value [3] of the same molecule?
**A.** The Vmax values were increased 4-6-fold compared to in the single enzyme assays

**Q.** What about the “fold reduction of Km,MeOH by Act” value [3] of the same molecule?
**A.** dramatically reduced (17-fold) to 12 mM for Mdh-MGA3 when Act was added to the reaction

**Q.** What about the “fold stimulation of Mdh activity, ethanol as substrate” value [3] of the same molecule?
**A.** Mdh activity was stimulated equally well (about 8-fold) with NudF as with Act

**Q.** What about the “methanol dehydrogenase activity” value [3] of the same molecule?
**A.** In all cases, methanol dehydrogenase activities were significantly stimulated by Act

B4: Act-MGA3 (MDH activator protein Act of Bacillus methanolicus MGA3) (protein, UniProt Q8KP10 2-185, looked up)
Methanol dehydrogenase activator: T1 sequence (Q8KP10 2-185, looked up)
**Q.** With B4 as the molecule, how does the Mdh activity in vitro, crude extract of E. coli co-expressing Act, 37 C, +Act [4] read?
**A.** 672 mU/mg

**Q.** What about the Mdh activity in vitro, crude extract of E. coli co-expressing Act, 45 C, +Act [4] of the same molecule?
**A.** 1910 mU/mg

**Q.** And the Mdh activity in vivo, E. coli cells co-expressing Act, 37 C, +Act [4]?
**A.** 9 mU/mg

**Q.** And the Mdh activity in vivo, E. coli cells co-expressing Act, 42 C, +Act [4]?
**A.** 11.3 mU/mg

**Q.** And the Mdh activity in vitro, crude extract of E. coli co-expressing Act, 37 C, +Act [5]?
**A.** 327 mU/mg

**Q.** What about the Mdh activity in vitro, crude extract of E. coli co-expressing Act, 45 C, +Act [5] of the same molecule?
**A.** 867 mU/mg

**Q.** And the Mdh activity in vivo, E. coli cells co-expressing Act, 37 C, +Act [5]?
**A.** 11 mU/mg

**Q.** What about the Mdh activity in vivo, E. coli cells co-expressing Act, 42 C, +Act [5] of the same molecule?
**A.** 24 mU/mg

**Q.** And the Mdh activity in vitro, crude extract of E. coli co-expressing Act, 37 C, +Act [6]?
**A.** 464 mU/mg

**Q.** What about the Mdh activity in vitro, crude extract of E. coli co-expressing Act, 45 C, +Act [6] of the same molecule?
**A.** 1260 mU/mg

**Q.** And the Mdh activity in vivo, E. coli cells co-expressing Act, 37 C, +Act [6]?
**A.** 1 mU/mg

**Q.** What about the Mdh activity in vivo, E. coli cells co-expressing Act, 42 C, +Act [6] of the same molecule?
**A.** 1 mU/mg

**Q.** And the fold increase of catalytic activity, ethanol as substrate (the MGA3 MDHs)?
**A.** 6 to 8 fold

**Q.** What about the fold induction of MDH activity, methanol as substrate, MDH:Act 1:1 (the MGA3 MDHs) of the same molecule?
**A.** 5 to 7 fold

B5: B. subtilis NudF protein (nudF gene product, ADP-ribose pyrophosphatase subfamily of Nudix hydrolases) (protein)
chain: MKSLEEKTIAKEQIFSGKVIDLYVEDVELPNGKASKREIVKHPGAVAVLAVTDEGKIIMVKQFRKPLERTIVEIPAGKLEKGEEPEYTALRELEEETGYTAKKLTKITAFYTSPGFADEIVHVFLAEELSVLEEKRELDEDEFVEVMEVTLEDALKLVESREVYDAKTAYAIQYLQLKEALQAQK
**Q.** B5 was tested. Which “fold stimulation of Mdh activity, ethanol as substrate” value [7] did it give?
**A.** Mdh activity was stimulated equally well (about 8-fold) with NudF as with Act

B6: Mdh2-MGA3 (methanol dehydrogenase Mdh2 of Bacillus methanolicus MGA3) (protein)
chain: T3 sequence
**Q.** B6 was tested. Which Km for methanol in the presence of Act (20 ug MDH + 20 ug Act) [3] did it give?
**A.** 200 mM

**Q.** What about the Vmax with methanol in the presence of Act (20 ug MDH + 20 ug Act) [3] of the same molecule?
**A.** 0.15 U/mg

**Q.** What about the “Vmax with methanol, with Act” value [3] of the same molecule?
**A.** The Vmax values were increased 4-6-fold compared to in the single enzyme assays

**Q.** What about the “change of Km,MeOH by Act” value [3] of the same molecule?
**A.** remained essentially the same as when tested without Act

**Q.** What about the “methanol dehydrogenase activity” value [3] of the same molecule?
**A.** In all cases, methanol dehydrogenase activities were significantly stimulated by Act
